Test [1] has as its target T1, GDF11 (UniProt O95390 299-407).
T1 construct: also called BMP11
T1 sequence (looked up): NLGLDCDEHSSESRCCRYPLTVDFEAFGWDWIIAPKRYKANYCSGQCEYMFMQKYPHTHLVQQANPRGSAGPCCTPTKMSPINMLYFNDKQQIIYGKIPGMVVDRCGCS
As to the kind of experiment: Biacore, receptor captured by anti-Fc. The protocol:
(§1) A Biacore™-based binding assay was used to compare ligand binding selectivity of the ALK4-Fc:ActRIIB-Fc heterodimeric complex described above with that of ActRIIB-Fc and ALK4-Fc homodimer complexes. The ALK4-Fc:ActRIIB-Fc heterodimer, ActRIIB-Fc homodimer, and ALK4-Fc homodimer were independently captured onto the system using an anti-Fc antibody. Ligands were injected and allowed to flow over the captured receptor protein. Results are summarized in the table below, in which ligand off-rates (kd) most indicative of effective ligand traps are denoted in bold font.
In general terms: In SPR one partner is held on a chip, and binding of the other changes the refractive index at the surface.

Test [2] deals with T1, GDF11. Kind of test: Biacore, receptor captured by anti-Fc; footnote: very low signal. The method, then: as §1
Test [3] addresses T2, activin A (UniProt P08476 311-426).
T2 sequence (looked up): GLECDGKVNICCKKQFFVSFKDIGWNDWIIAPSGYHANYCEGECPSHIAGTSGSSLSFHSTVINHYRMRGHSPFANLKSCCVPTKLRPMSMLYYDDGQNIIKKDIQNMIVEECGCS
Kind of test: cell-based or functional assay.

Test [4] deals with T1, GDF11. As to the kind of experiment: cell-based or functional assay.
In test [5] the target is T3, ALK4-Fc:ActRIIB-Fc heterodimer (human, UniProt P36896 24-126; Q13705 20-134).
T3 construct: also called ALK4-Fc:ActRIIB-Fc heterodimeric complex; ALK4:ActRIIB heterodimer; not shown: Linkers (TGGG on ALK4, GGG on ActRIIB) and the engineered Fc pair; They differ only in Fc substitutions
T3 sequence 1: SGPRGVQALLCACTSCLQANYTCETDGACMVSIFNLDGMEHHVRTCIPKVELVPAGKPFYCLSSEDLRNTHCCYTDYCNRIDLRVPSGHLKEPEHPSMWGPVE
T3 sequence 2: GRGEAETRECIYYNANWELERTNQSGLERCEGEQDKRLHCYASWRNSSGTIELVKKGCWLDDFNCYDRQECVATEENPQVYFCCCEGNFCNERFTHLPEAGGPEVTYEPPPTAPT
As to the kind of experiment: Biacore, receptor captured by anti-Fc. The protocol:
as §1

B1: ALK4-Fc homodimer (Fc fusion)
chain: SGPRGVQALLCACTSCLQANYTCETDGACMVSIFNLDGMEHHVRTCIPKVELVPAGKPFYCLSSEDLRNTHCCYTDYCNRIDLRVPSGHLKEPEHPSMWGPVE
notes: not shown: linker and Fc of the homodimer not specified
The term kon denotes the rate constant with which the complex forms. Low readings indicate slower complex formation, high ones faster complex formation. What is called Kd is the equilibrium constant for the complex coming apart. A low value points to higher affinity. In test [1], B1 gave a kon of 4.8e+06 M⁻¹ s⁻¹. For the same molecule, the Kd in test [2] was found to be 0.27 nM.

B2: ActRIIB-Fc A64 20-134 (Fc fusion)
chain: GRGEAETRECIYYNANWELERTNQSGLERCEGEQDKRLHCYASWANSSGTIELVKKGCWLDDFNCYDRQECVATEENPQVYFCCCEGNFCNERFTHLPEAGGPEVTYEPPPTAPTGGGTHTCPPCPAPELLGGPSVFLFPPKPKDTLMISRTPEVTCVVVDVSHEDPEVKFNWYVDGVEVHNAKTKPREEQYNSTYRVVSVLTVLHQDWLNGKEYKCKVSNKALPVPIEKTISKAKGQPREPQVYTLPPSREEMTKNQVSLTCLVKGFYPSDIAVEWESNGQPENNYKTTPPVLDSDGSFFLYSKLTVDKSRWQQGNVFSCSVMHEALHNHYTQKSLSLSPGK
As for B2, the “KI, cell-based assay” value in test [3] and in test [4] was about 1000 nM each time.

B3: ActRIIB(20-134)-hFc (Fc fusion)
chain: GRGEAETRECIYYNANWELERTNQSGLERCEGEQDKRLHCYASWRNSSGTIELVKKGCWLDDFNCYDRQECVATEENPQVYFCCCEGNFCNERFTHLPEAGGPEVTYEPPPTAPTGGGTHTCPPCPAPELLGGPSVFLFPPKPKDTLMISRTPEVTCVVVDVSHEDPEVKFNWYVDGVEVHNAKTKPREEQYNSTYRVVSVLTVLHQDWLNGKEYKCKVSNKALPVPIEKTISKAKGQPREPQVYTLPPSREEMTKNQVSLTCLVKGFYPSDIAVEWESNGQPENNYKTTPPVLDSDGSFFLYSKLTVDKSRWQQGNVFSCSVMHEALHNHYTQKSLSLSPGK
For the molecule B3, the “KI, cell-based assay” value in test [3] and in test [4] was about 10 nM in each case.

B4: BMP6 (ligand, UniProt P22004 375-513, looked up)
chain: SASSRRRQQSRNRSTQSQDVARVSSASDYNSSELKTACRKHELYVSFQDLGWQDWIIAPKGYAANYCDGECSFPLNAHMNATNHAIVQTLVHLMNPEYVPKPCCAPTKLNAISVLYFDDNSNVILKKYRNMVVRACGCH
The koff is a measure of how fast the partners let go of each other. A low value points to slow dissociation. Regarding B4, in test [5], the Kd was determined as 2.7 nM, the koff amounted to 0.0055 s⁻¹ and the kon was 2e+06 M⁻¹ s⁻¹.
